“And” between values parts separate entries of the source, which are not always exact repeats. Equal entries are not always repeated. Where two headings read alike, the source gives them in different places. One block for each binder: values may come before it.
How the values were obtained:
IL13 [1] = molecular target: T1, IL13 (human, UniProt P35225)
EGFR = EGFR (human, UniProt P00533); test: SPR
IL4 [2] = molecular target: T2, IL4 (human, UniProt P05112); test: SPR
T2 chain: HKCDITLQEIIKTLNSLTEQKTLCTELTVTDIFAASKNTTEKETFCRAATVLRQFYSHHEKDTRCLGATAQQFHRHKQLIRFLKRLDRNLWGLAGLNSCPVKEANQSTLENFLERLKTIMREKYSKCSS

IL4 [3] = molecular target: T2, IL4; test: SPR
IL4 [4] = molecular target: T2, IL4; test: SPR
IL4 [5] = molecular target: T2, IL4; test: SPR
IL4 [6] = molecular target: T2, IL4; test: SPR
IL13 [7] = molecular target: T1, IL13; test: SPR
IL13 [8] = molecular target: T1, IL13; test: SPR; remark: listed apart in the source
IL13 [9] = molecular target: T1, IL13; test: SPR; remark: listed apart in the source

T1 sequence (P35225 35-146): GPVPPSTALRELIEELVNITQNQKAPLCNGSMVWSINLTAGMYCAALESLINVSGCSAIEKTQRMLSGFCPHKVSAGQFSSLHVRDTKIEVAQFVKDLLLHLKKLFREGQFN

B2: CODV-Fab 413, EGFR arm (antibody)
chain 1: not shown
chain 2: EIVLTQSPGTLSVSPGERATLSCRASQSIGSSLHWYQQKPGQAPRLLIKYASQSLSGIPDRFSGSGSGTDFTLTISRLEPEDFAVYYCHQSSRLPHTFGQGTKVEIKGGGGGGGEIVMTQSPATLSLSPGERATLSCRASQSVSSYLAWYQQKPGQAPRLLIYDASNRATGIPARFSGSGSGTDFTLTISSLEPEDFAVYYCHQYGSTPLTFGGGTKAEIKGGGGGRTVAAPSVFIFPPSDEQLKSGTASVVCLLNNFYPREAKVQWKVDNALQSGNSQESVTEQDSKDSTYSLSSTLTLSKADYEKHKVYACEVTHQGLSSPVTKSFNRGEC
Kd (EGFR): 42 nM

B3: CODV-Ig 411 HC13/LC13, EGFR arm (antibody)
chain 1: not shown
chain 2: EIVLTQSPGTLSVSPGERATLSCRASQSIGSSLHWYQQKPGQAPRLLIKYASQSLSGIPDRFSGSGSGTDFTLTISRLEPEDFAVYYCHQSSRLPHTFGQGTKVEIKGGGGGGGEIVMTQSPATLSLSPGERATLSCRASQSVSSYLAWYQQKPGQAPRLLIYDASNRATGIPARFSGSGSGTDFTLTISSLEPEDFAVYYCHQYGSTPLTFGGGTKAEIKGGGGGRTVAAPSVFIFPPSDEQLKSGTASVVCLLNNFYPREAKVQWKVDNALQSGNSQESVTEQDSKDSTYSLSSTLTLSKADYEKHKVYACEVTHQGLSSPVTKSFNRGEC
Kd (EGFR): 124 nM

B4: CODV-Ig LC4:HC4, IL4 arm (antibody, V domains shown)
VH: QVQLQQSGPELVKPGASVKISCKASGYSFTSYWIHWIKQRPGQGLEWIGMIDPSDGETRLNQRFQGRATLTVDESTSTAYMQLRSPTSEDSAVYYCTRLKEYGNYDSFYFDVWGAGTLVTVSS
VL: DIQMTQSPASLSVSVGDTITLTCHASQNIDVWLSWFQQKPGNIPKLLIYKASNLHTGVPSRFSGSGSGTGFTLTISSLQPEDIATYYCQQAHSYPFTFGGGTKLEIKR
Kd (IL4 [2]): 0.00914 nM

B5: CODV-Ig Fc cysteine variants (602, 603), IL4 arm (antibody, V domains shown)
VH: QVQLQQSGPELVKPGASVKISCKASGYSFTSYWIHWIKQRPGQGLEWIGMIDPSDGETRLNQRFQGRATLTVDESTSTAYMQLRSPTSEDSAVYYCTRLKEYGNYDSFYFDVWGAGTLVTVSS
VL: DIQMTQSPASLSVSVGDTITLTCHASQNIDVWLSWFQQKPGNIPKLLIYKASNLHTGVPSRFSGSGSGTGFTLTISSLQPEDIATYYCQQAHSYPFTFGGGTKLEIKR
Kd (IL4 [3]): 0.004 nM and 0.01 nM

B9: CODV-Fab 421, IL4 arm (antibody, V domains shown)
VH: QVQLQQSGPELVKPGASVKISCKASGYSFTSYWIHWIKQRPGQGLEWIGMIDPSDGETRLNQRFQGRATLTVDESTSTAYMQLRSPTSEDSAVYYCTRLKEYGNYDSFYFDVWGAGTLVTVSS
VL: DIQMTQSPASLSVSVGDTITLTCHASQNIDVWLSWFQQKPGNIPKLLIYKASNLHTGVPSRFSGSGSGTGFTLTISSLQPEDIATYYCQQAHSYPFTFGGGTKLEIKR
Kd (IL4 [6]): 0.012 nM

B10: CODV 706, IL4 arm (antibody, V domains shown)
VH: QVQLQQSGPELVKPGASVKISCKASGYSFTSYWIHWIKQRPGQCLEWIGMIDPSDGETRLNQRFQGRATLTVDESTSTAYMQLRSPTSEDSAVYYCTRLKEYGNYDSFYFDVWGAGTLVTVSS
VL: DIQMTQSPASLSVSVGDTITLTCHASQNIDVWLSWFQQKPGNIPKLLIYKASNLHTGVPSRFSGSGSGTGFTLTISSLQPEDIATYYCQQAHSYPFTFGCGTKLEIKR
Kd (IL4 [4]): 0.008 nM

B11: CODV-Ig Fc cysteine variants (602, 603), IL13 arm (antibody, V domains shown)
VH: EVQLKESGPGLVAPGGSLSITCTVSGFSLTDSSINWVRQPPGKGLEWLGMIWGDGRIDYADALKSRLSISKDSSKSQVFLEMTSLRTDDTATYYCARDGYFPYAMDFWGQGTSVTVSS
VL: DIVLTQSPASLAVSLGQRATISCRASESVDSYGQSYMHWYQQKAGQPPKLLIYLASNLESGVPARFSGSGSRTDFTLTIDPVQAEDAATYYCQQNAEDSRTFGGGTKLEIK
Kd (IL13 [7]): 0.064 nM and 0.1 nM

B12: CODV-Fab 421, IL13 arm (antibody, V domains shown)
VH: EVQLKESGPGLVAPGGSLSITCTVSGFSLTDSSINWVRQPPGKGLEWLGMIWGDGRIDYADALKSRLSISKDSSKSQVFLEMTSLRTDDTATYYCARDGYFPYAMDFWGQGTSVTVSS
VL: DIVLTQSPASLAVSLGQRATISCRASESVDSYGQSYMHWYQQKAGQPPKLLIYLASNLESGVPARFSGSGSRTDFTLTIDPVQAEDAATYYCQQNAEDSRTFGGGTKLEIK
Kd (IL13 [8]): 0.048 nM

B15: CODV-Ig LC4:HC4, IL13 arm (antibody, V domains shown)
VH: EVQLKESGPGLVAPGGSLSITCTVSGFSLTDSSINWVRQPPGKGLEWLGMIWGDGRIDYADALKSRLSISKDSSKSQVFLEMTSLRTDDTATYYCARDGYFPYAMDFWGQGTSVTVSS
VL: DIVLTQSPASLAVSLGQRATISCRASESVDSYGQSYMHWYQQKAGQPPKLLIYLASNLESGVPARFSGSGSRTDFTLTIDPVQAEDAATYYCQQNAEDSRTFGGGTKLEIK
Kd (IL13 [9]): 0.0934 nM

Second part, the binder after the results:

binding result (IL13 [1]): no binding
B1: Cross-over IL4(G4S)IL13CH1-Fc / IL13(G4S2)IL4CL (antibody)
chain 1: not shown
chain 2: DIVLTQSPASLAVSLGQRATISCRASESVDSYGQSYMHWYQQKAGQPPKLLIYLASNLESGVPARFSGSGSRTDFTLTIDPVQAEDAATYYCQQNAEDSRTFGGGTKLEIKGGGGSGGGGSDIQMTQSPASLSVSVGDTITLTCHASQNIDVWLSWFQQKPGNIPKLLIYKASNLHTGVPSRFSGSGSGTGFTLTISSLQPEDIATYYCQQAHSYPFTFGGGTKLEIKRTVAAPSVFIFPPSDEQLKSGTASVVCLLNNFYPREAKVQWKVDNALQSGNSQESVTEQDSKDSTYSLSSTLTLSKADYEKHKVYACEVTHQGLSSPVTKSFNRGEC

Kd (IL4 [4]): 0.003 nM | Kd (IL4 [5]): 0.003 nM
B6: CODV-Ig heavy-chain template (batches 201-270, 501-508, 704, 801), IL4 arm (antibody, V domains shown)
VH: QVQLQQSGPELVKPGASVKISCKASGYSFTSYWIHWIKQRPGQGLEWIGMIDPSDGETRLNQRFQGRATLTVDESTSTAYMQLRSPTSEDSAVYYCTRLKEYGNYDSFYFDVWGAGTLVTVSS
VL: DIQMTQSPASLSVSVGDTITLTCHASQNIDVWLSWFQQKPGNIPKLLIYKASNLHTGVPSRFSGSGSGTGFTLTISSLQPEDIATYYCQQAHSYPFTFGGGTKLEIKR

Kd (IL4 [2]): 0.0111 nM
B7: CODV-Ig LC4:HC6, IL4 arm (antibody, V domains shown)
VH: QVQLQQSGPELVKPGASVKISCKASGYSFTSYWIHWIKQRPGQGLEWIGMIDPSDGETRLNQRFQGRATLTVDESTSTAYMQLRSPTSEDSAVYYCTRLKEYGNYDSFYFDVWGAGTLVTVSS
VL: DIQMTQSPASLSVSVGDTITLTCHASQNIDVWLSWFQQKPGNIPKLLIYKASNLHTGVPSRFSGSGSGTGFTLTISSLQPEDIATYYCQQAHSYPFTFGGGTKLEIKR

Kd (IL4 [2]): 0.00783 nM
B8: parental anti-IL4 mAb (8D4 humanized) (antibody, V domains shown)
VH: QVQLQQSGPELVKPGASVKISCKASGYSFTSYWIHWIKQRPGQGLEWIGMIDPSDGETRLNQRFQGRATLTVDESTSTAYMQLRSPTSEDSAVYYCTRLKEYGNYDSFYFDVWGAGTLVTVSS
VL: DIQMTQSPASLSVSVGDTITLTCHASQNIDVWLSWFQQKPGNIPKLLIYKASNLHTGVPSRFSGSGSGTGFTLTISSLQPEDIATYYCQQAHSYPFTFGGGTKLEIKR

Kd (IL13 [9]): 0.118 nM
B13: CODV-Ig LC4:HC6, IL13 arm (antibody, V domains shown)
VH: EVQLKESGPGLVAPGGSLSITCTVSGFSLTDSSINWVRQPPGKGLEWLGMIWGDGRIDYADALKSRLSISKDSSKSQVFLEMTSLRTDDTATYYCARDGYFPYAMDFWGQGTSVTVSS
VL: DIVLTQSPASLAVSLGQRATISCRASESVDSYGQSYMHWYQQKAGQPPKLLIYLASNLESGVPARFSGSGSRTDFTLTIDPVQAEDAATYYCQQNAEDSRTFGGGTKLEIK

Kd (IL13 [9]): 0.0818 nM
B14: parental anti-IL13 mAb (B-B13 humanized) (antibody, V domains shown)
VH: EVQLKESGPGLVAPGGSLSITCTVSGFSLTDSSINWVRQPPGKGLEWLGMIWGDGRIDYADALKSRLSISKDSSKSQVFLEMTSLRTDDTATYYCARDGYFPYAMDFWGQGTSVTVSS
VL: DIVLTQSPASLAVSLGQRATISCRASESVDSYGQSYMHWYQQKAGQPPKLLIYLASNLESGVPARFSGSGSRTDFTLTIDPVQAEDAATYYCQQNAEDSRTFGGGTKLEIK

binding result (IL13 [1]): no binding
B16: Cross-over IL4(G4S)IL13CH1-Fc / IL13(G4S)IL4CL (antibody)
chain 1: not shown
chain 2: DIVLTQSPASLAVSLGQRATISCRASESVDSYGQSYMHWYQQKAGQPPKLLIYLASNLESGVPARFSGSGSRTDFTLTIDPVQAEDAATYYCQQNAEDSRTFGGGTKLEIKGGGGSDIQMTQSPASLSVSVGDTITLTCHASQNIDVWLSWFQQKPGNIPKLLIYKASNLHTGVPSRFSGSGSGTGFTLTISSLQPEDIATYYCQQAHSYPFTFGGGTKLEIKRTVAAPSVFIFPPSDEQLKSGTASVVCLLNNFYPREAKVQWKVDNALQSGNSQESVTEQDSKDSTYSLSSTLTLSKADYEKHKVYACEVTHQGLSSPVTKSFNRGEC

binding result (IL13 [1]): no binding
B17: Cross-over IL4(G4S2)IL13CH1-Fc / IL13(G4S)IL4CL (antibody)
chain 1: not shown
chain 2: DIVLTQSPASLAVSLGQRATISCRASESVDSYGQSYMHWYQQKAGQPPKLLIYLASNLESGVPARFSGSGSRTDFTLTIDPVQAEDAATYYCQQNAEDSRTFGGGTKLEIKGGGGSDIQMTQSPASLSVSVGDTITLTCHASQNIDVWLSWFQQKPGNIPKLLIYKASNLHTGVPSRFSGSGSGTGFTLTISSLQPEDIATYYCQQAHSYPFTFGGGTKLEIKRTVAAPSVFIFPPSDEQLKSGTASVVCLLNNFYPREAKVQWKVDNALQSGNSQESVTEQDSKDSTYSLSSTLTLSKADYEKHKVYACEVTHQGLSSPVTKSFNRGEC

Reference: patent publication US20140056895 (published 2014)
